Assay: yeast display, Sf9 membrane polyspecificity reagent, FACS + sequencing; frameworks hold sequencing errors
Outline: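 In a synthetic yeast display library (Saccharomyces cerevisiae BJ5465), nanobody expression was induced with galactose for 36–48 hours. FACS gates were set low and high (top ~1%) using anti-HA fluorescence for expression and streptavidin fluorescence for binding of the Sf9 membrane reagent. Each polyreactivity label is drawn from the gate of origin.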

Sequence	polyreactivity (PSR sort gate)
QVQLVESGGGLFQAGGSLRLSCAASGRILDYYAMGWYRQAPGKERELVAAIRRRGVITYADSVKGRFTISRDNAKNTVYLLMKSLKPEDTAVYYCAAGGYEYGYWGQGTQVTVSS	low polyreactivity
QVQLVESGGGLFQAGGSLRLSCAASGRTFQNAMGWYRQAPGKERELVAAISVRGTRTYYADSVKGRFTISRDNAKNTVYLQMNSLKPEDTAVYYCAADRGKATSADDYWGQGTQVTVSW	high polyreactivity
QVQLVESGGGLFQAGGSLRLSCAASGRTFYPNAMGWYRQAPGKERELVAAISWSVGTTHYADSVKGRFTISRDNAKNSVYLQMLSLKPEDTAVYYCNARWYYGVYDYWGQGTQVTVSS	low polyreactivity
QVQLVESGGGLFQAGGSLRLSCAASGSIFGYYAMGWYIQAPGKERELVARISYSGGTTYYADSVKGRFTISRDNAKNTVYLQMNSLKPEDTAVYYCNARIPYSWRYGYWGQGTQVTVSS	high polyreactivity
QVQLVESGGGLFQAGGSLRLSCAASGSIFTRYAMGWYRQAPGKERELVAAISNRGGRTYYADSVKGRFTISRDNAKNTVYLQMNILKPEDTAVYYCNAATTRRIPQSDNYWGQGTQVTVSS	high polyreactivity
QVQLVESGGGLFQAGGSLRLSCAASGSIFVRNAMGWYRKATGKERELVAGISATGGSTYYADSVKGRFTISRDNAKITVYFQMKSLKPEDTAVYYCAKKVSTRFARYRYDYWGQVTQVTVSS	high polyreactivity
QVQLVESGGGLFQAGGSLRLSCAASGSTFDTYAMGWYRQAPGKERELVAAISYRGGNTYYADSVKGRFTISRDNAKNTVYLQMNSLKPEDTAVYYCNAGVSIGRSRRYDYWGQGTQVTVSS	low polyreactivity
QVQLVESGGGLFQAGGSLRLSCAASGSTFGRYAMGWYRQAPGTEREWLAAISRRGGSTYYADSVKGRFTISRDNAKNTVYLQMNSLKPEDSAVYYCATGYPIDLGREFDYWGQGFQVTVSS	high polyreactivity
QVQLVESGGGLFQAGGSLRLSCAASGSTFNTNAMAWYRHAPGKERELVAAISWSSTRTYYADSVKWRFTISRDNAKNTVYLQMNSLKPEDTAVYYCAAATYQSRYFQRFDYWGQGTQVTVSS	high polyreactivity
QVQLVESGGGLFQAGGSLRLSCAASGSTFRANAMGWYRQAPGKETELVAAISQSGGITYYADSVKVRFTISRDNAKNTVYLQMKSLKPEDTAVYYCAALGYRIIRGRFYSWGQGTQVTVSS	high polyreactivity
QVQLVESGGGLFQAGGSLRLSCAASGSTFRHYDMAWYRQAPGKERELVAVISWGGTSTYYADSVKGRFTISRDNAKNTVYLQMHSLKPEDTGVYYCNKAYFPIFKGYEMYYWGQGTQVTVST	low polyreactivity
QVQLVESGGGLFQAGGSLRLSCAASGSTFSPNGMGWYRQSPGKERELVAVISTTGGGTYYADSVKVRFTISRDNAKNTVYLQLNSLKPEDTAVYYCAADVWTYSWSWRKYVEFNYWGQGTQVTVSS	high polyreactivity
QVQLVESGGGLFQAGGSLRLSCAASGSTFYIYAMGWYRQAPGKEREFFAAIDFSGSSTYADSEKGRFTISRDNAKNTVYVQMNSLKPEDTAVYYCAAYQIYQYDGPYDYWGQGTQVTVSS	low polyreactivity
QVQLVESGGGLFQAGGSLRLSCAASGSTLAGYTMGWYRQAPGKERELVASISFTGGSTYYADSVKGRFTISRDNAKNTVYLQMNSLKPEDTAVYYCAAGTWQYYFLYDTYRRYYYWGQGTQVTGSS	high polyreactivity
QVQLVESGGGLFQAGGSLRLSCAASGSTLVKNAMGWYRQAPGKERELVAAIDYNDDITYYADSVKGRFTISRDTAKNTVYLQMNSLKPEDTAVYYCAAEPYAGPELDYWGQGTQVTVSS	high polyreactivity
QVQLVESGGGLFQAGGSLRLSCAASGTTFVRYAMGCYRQAPGKDRQLVAAISSSGATTYYADSVKGRFTISRDNAKNTVYLQMNSLKPEDTEVYYCARLYVKRHGYWGQGSQVTVSS	high polyreactivity
QVQLVESGGGLFQAGGSLRLSCAATGSIFDYYAMGWYRQAPGKERELDGTITSGVSTYYADSVKGRFTISRDNAKNTVYLQMISLKPEDTAVYYCARDYAKSQDLYKYDYWGQGTQVTGSS	low polyreactivity
QVQLVESGGGLFQAGGSLRLSCAPSGSIFTTYAMGWYRQAPGKERELVAAITDTCSTNYADSVKGRFTISRDNAKNTVYLQMNSLKPEDTAVYYCAVDLGYEYDWGQGTEVTVSS	low polyreactivity
QVQLVESGGGLFQAGGSLRLSCSASGNTFVPYDMGWYRQAPGKERELVAGITSGGSTYYADSVKGRFTISRDNAKNTVYLQMNSLKPEDTAVYYCAADYYLWVYWYDYWGEGTQVTVSS	high polyreactivity
QVQLVESGGGLFQAGGSLRLSSAASGSTFSYYVMGWYRQAPGKERELVAAIDYSGDSTYYADSVKGRFTLSRDNAKNTVYLQMNSLKPEDTAVYYCAADDYPWNRYEYWGQGTQVTVSS	low polyreactivity
QVQLVESGGGLFQAGGSLRLTCAASGSTFPYHTMGWYRQATGKQRDFVAAITGDGGTTYYADSVKGRFTISRDNAKNTVYLQMNSLKPEDTAVYYCNALYAPYGWFYCLYDYWGPGTQVTVSS	low polyreactivity
QVQLVESGGGLFQAGGSLRVSCAASGSTFYLYAMGWSRQAPGKEREWVAAISRRGGTTNYADSVKGRFTISRDNAKNSVYLQMNSLKPEDTAVYDCGADYQSVGGAEYDYWGQGTQVTVSS	high polyreactivity

Sequence	polyreactivity (PSR sort gate)
QVQLVESGGGLFQAGGSLSLRCAASGSSFDDYTMGWYRQATGKETELLAAISSAGSTNYADSVKGRFTISRDNAKNTVYLQMNILKPEDTAVYSFAAQVHPLRYDYWGQGTQVTVSS	low polyreactivity
QVQLVESGGGLFQAGGSLSLSCAASGFIFSGYAMGWYRQAPGTERELVAAITWSCSNTFYADSVKGRFTISRDNAKITVFLQMNSLKPEDTAVYYCTAVSKYKRSDYYYWGQGTQVTVSS	high polyreactivity
QVQLVESGGGLFQAGGSLSLSCAASGSTFVKYAMGWYRQAPGKERELVATITRRGGNTYYADSVKGRFKISRVNAKNTVYIQLNSLKPEDTEVYYCNRADYRASYSGQGSYDYWGQGTQVTVSS	high polyreactivity
QVQLVESGGGLFQAGGSRRLICSASGFTFASNAMGWYRQAPGKERELVAAITSRGGGTYYADSVKGRFTISRDNAKNTVYLQMNSLKPEDTAVYYCNVVYGVRYFNSRGYYYWGQGTQVTVSS	high polyreactivity
QVQLVESGGGLFQAGRSLRLSSPASGSSFISYAMGWYRQAPGKDRELVAAITSRGGRTYYADSVKGRFTISRDNAKYTVDLQMNCLKPDDTAVYYCAASFSYRIRRYDYWGQGTQVTVSS	high polyreactivity
QVQLVESGGGLFQAGVSLRLSCAASGRTLQIYHMGWYRQAPGKERELVAAISSSGGSTYYADSVKGRFTISRDNAKNTVYVQMNSLKAEDTAVYYCAADPRGYGYTRKGYYWGQGTQVTVSS	high polyreactivity
QVQLVESGGGLFQEGGSLRLSCAASGFTFLVYAKGWYRQAPGKERQLVAAITWSGDSTYYADSVKGRFTISRDNAKNTVYLQMNSLKPEDTAFYYCAAAYRYGTLYYYWGQGTQVTVSS	low polyreactivity
QVQLVESGGGLFQEGGSLRLSCAASGSIFTFYAMGWYRQAPGKERELVAAITSGGSTTYADSVKGRFTISRDNAKNTVYLQMNSLKREDTAVFYCNAESWWGYYYWGQVTQVTVSS	high polyreactivity
QVQLVESGGGLFQEGGSLRLSCAASGSTFANYVMGWYRQAPGKEREFVAGITRSGGSTYYADSVKGRFTISRDNAKNTVYLQMNSLKPEDTAVYYCNKVRRASYYYEYDYWGQVTQVTVSS	low polyreactivity
QVQLVESGGGLFQEGGSLRLSCAPCGLIFFSYAMGWYRQAPGTERELVAAISRLGGRTYYADSVKGRFTISRDNAKNTVYLQMNSLKPEDTAVYYCATRVWTPIFGYEYWGQGTQVTVSS	low polyreactivity
QVQLVESGGGLGHAGGSLRLSCAASGGIYDYYAMGWNRQAPGKERELVTAITRSGSSTFYADSVKGRFTISRDNAKNTVYLQMKSVKPEDTAVYYCAAPYYYFAVYYGYIFEYDYWGQGTQVTVSS	low polyreactivity
QVQLVESGGGLGQAGGSLRLSCAASGFTFDFYAMGWYRQAPGKERELVAAISKNDGTTYYADSVKGRFTISRDNAKNTVYLQMNSLKPEDTAVYYCAAESGYPVYTYVSSGDYWGQGTQVTVSS	low polyreactivity
QVQLVESGGGLGQAGGSLRLSCAASGFTFRKYVMGWYRQAPGKERALVAAITSGGSTNYADSVKGRFTISRDNAKNTVYLQMNSVIPEDTAVYYCATVPGARVHYPTGDYWGQGTQVTVSS	high polyreactivity
QVQLVESGGGLGQAGGSLRLSCAASGIIFLDNAMGWYRQAPGKERELVAAYADSVKGRFTISRDNSNNTVYLQMNSLKPEDTAVYYCNVVLYKYSPTDSWITYDYWGQGTQVTVSS	low polyreactivity
QVQLVESGGGLGQAGGSLRLSCAASGITFRSYAMGWYRQAPGKERELVATISWSGGITYYADSVKGRFTISRDNAKNTVYLQMNSLKPEDTAVYYCAKASQSWGPDDYYYWGQGTQVTVSS	low polyreactivity
QVQLVESGGGLGQAGGSLRLSCAASGITFVVYAMGWYRQAPGKERELVATISSGGSTNYADSVKGRFTISRDNAKNTVYLQMNSLKPEDTAVYYCNRVSVYRSSHLLWGGYWGQGTQVTVSS	low polyreactivity
QVQLVESGGGLGQAGGSLRLSCAASGRIFFGNARGWYRQAPGKEREFVAAISLTGVTTSYADSVKGRFTISRDNAKNTVYLQMNSLKPEDTAVYYCARDYSYYTHAYDYWGQGTQVTVSS	low polyreactivity
QVQLVESGGGLGQAGGSLRLSCAASGRIFYRNAMGWYRQAPGKERELVAAISSSGSTNYADSVKGRFTISRDNAKNTVYLQMNSLKPEDTAVDYCNDVVRWGYGYDYWGQGTQVTVSS	high polyreactivity
QVQLVESGGGLGQAGGSLRLSCAASGRIVSNAMGWYRQAPGKERELVAAISRRGGSTYYADSVKGRFTISRENAKNTVYLQMNSLIPEDTAVYSCASRPFFTYRWYDYWGQGTQVTVSS	high polyreactivity
QVQLVESGGGLGQAGGSLRLSCAASGRTFYYNAMGWYRQAPGKERELVAAITRSGGRTYYADSVKGRFTISRDTAKNTVYLQMNSLKPEDTAVYYCAARWSSYYSSMDYWGQGSQVTVSS	high polyreactivity
QVQLVESGGGLGQAGGSLRLSCAASGRTLGAYAMGWYRQAPGKERELVAAISGSGGSTYYADSVKGRFTISRDNAKNTVYLQMNSLKPEDTAVYYCAAVLSRYGQSISMYYWGQGTQVTVSS	high polyreactivity

Reference: the nanobody polyreactivity screen of Harvey et al. (2022)
